In US20240000938A1 (published 2024):

T1: HA-1(R), allelic variant; Rho GTPase activating protein 45 (HMHA1) peptide on HLA-A*02:01 (human)
T1 peptide: VLRDDLLEA

T2: HA-1 variant H, HA-1(H); Rho GTPase activating protein 45 (HMHA1) peptide on HLA-A*02:01 (human)
T2 peptide: VLHDDLLEA

T3: mH-Y (MiHA-Y) peptide on H-2Db (mouse)
T3 peptide: KCSRNRQYL


Experiments:
Assay in all cases: activation reporter or marker
[1] = biological target: T1, HA-1(R), allelic variant; Rho GTPase …
[2] = biological target: T2, HA-1 variant H, HA-1(H); Rho GTPase …
[3] = biological target: T3, mH-Y (MiHA-Y) peptide on H-2Db

Binder | binding result [1] | binding result [2] | binding result [3]
KP7 HA-1H TCR (TCR, V domains shown) Valpha: KNEVEQSPQNLTAQEGEFITINCSYSVGISALHWLQQHPGGGIVSLFMLSSGKKKHGRLIATINIQEKHSSLHITASHPRDSAVYICAVRSVSGAGSYQLTFGKGTKLSVIP Vbeta: DTGVSQNPRHKITKRGQNVTFRCDPISEHNRLYWYRQTLGQGPEFLTYFQNEAQLEKSRLLSDRFSAERPKGSFSTLEIQRTEQGDSAMYLCASSIDSFNEQFFGPGTRLTVL | no recognition | recognises | 
H-Y TCR Jb2.3L (TCR, V domains shown) Valpha: AQSVDQPDAHVTLSEGASLELRCSYSYSAAPYLFWYVQYPGQSLQFLLKYITGDTVVKGTKGFEAEFRKSNSSFNLKKSPAHWSDSAKYFCALEGQDQGGSAKLIFGEGTKLTVSS Vbeta: EAAVTQSPRNKVAVTGGKVTLSCNQTNNHNNMYWYRQDTGHGLRLIHYSYGAGSTEKGDIPDGYKASRPSQENFSLILELATPSQTSVYFCASGDNSAETLYFGPGTRLLVL |  |  | recognises
